Measurements published in patent US20260102461A1 (AIKIUM, published 2026).
Read-outs that look alike come from different tables or passages of the source. Each block holds one binder with its values, some of them ahead of it.

Key:
[1] = biological target: T1, CD74 disordered region peptide (CLIP), PPKPVSKMRMATPLLMQALPMGALP (biotin (position not given)); test: modified sandwich ELISA, fluorescence grade (key: >400000, Strong binding)
T1 peptide: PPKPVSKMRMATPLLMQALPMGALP

[2] = biological target: T2, CYSLTR2 N-terminal disordered region, MERKFMSLQPSISVSEMEPNGTFSNNNSRNCTIENFKREFFP (biotin (position not given)); test: modified sandwich ELISA, fluorescence grade (key: 50000 < x < 100000, Weak binding)
T2 construct: also called CysLT2; CysLT2r
T2 peptide: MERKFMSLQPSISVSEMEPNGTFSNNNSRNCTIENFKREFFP

[3] = biological target: T3, KAAG1 disordered region peptide, PGAAAAHLPRWPPPQLAASRREA (biotin (position not given)); test: modified sandwich ELISA (scaffold coated, biotinylated peptide, streptavidin-HRP fluorescence)
T3 peptide: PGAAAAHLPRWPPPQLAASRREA

[4] = biological target: T2, CYSLTR2 N-terminal disordered region, …; test: as above
[5] = biological target: T3, KAAG1 disordered region peptide, …; test: modified sandwich ELISA, fluorescence grade (key: 50000 < x < 100000, Weak binding)
[6] = biological target: T3, KAAG1 disordered region peptide, …; test: modified sandwich ELISA (scaffold coated, biotinylated peptide, streptavidin-HRP fluorescence)
[7] = biological target: T4, Urotensin-2 receptor (UR-II-R) disordered region, MALTPESPSSFPGLAATGSSVPEPPGGPNATLNSSWASPTEPSSLEDLVATGTI (biotin (position not given)); test: as above
T4 construct: also called Urotensin II R; GPCR2 (Urotensin II)
T4 peptide: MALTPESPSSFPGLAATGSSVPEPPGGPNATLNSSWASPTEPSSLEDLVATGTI

[8] = biological target: 25 amino acid epitope of CLIP (CD74); test: BLI (Octet), biotinylated peptide on streptavidin tip, scaffold in solution
[9] = biological target: T5, CYSLTR2 Epitope SISVSEMEPNGTFSNNNSRNC (N-terminally biotinylated); test: ELISA, scaffold coated on the plate, biotinylated peptide titrated, streptavidin-HRP fluorescence
T5 peptide: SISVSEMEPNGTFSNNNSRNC

[10] = biological target: T1, CD74 disordered region peptide (CLIP), …; test: as above
Procedure: (§1) Binder proteins were coated on the surface of a high binding capacity 96 well plate by incubating 100 μL of protein at […] in a coating solution (10 mM Tris pH 8.8, 50 mM NaCl), overnight at 4 C. The next morning, the coating solution was aspirated out and wells were washed once with 300 μL ELISA wash buffer (lx PBS, 0.05% Tween-20) and solution was aspirated out. The wells were blocked with 200 μL of a blocking buffer (1×PBS, 0.05% Tween-20, 3% BSA) at room temperature for 1 hour. After one hour, the blocking solution was aspirated out and 100 μL of biotinylated polypeptide in a binding buffer (1×PBS, 0.05% Tween-20, 0.5% BSA) at various concentrations was added to the appropriate well and incubated for 20 minutes. Peptide solution was aspirated out after 20 minutes and wells were washed 5 times with 300 μL of ELISA wash buffer. To detect the biotinylated peptide, 100 μL of streptavidin-HRP (50 ng/mL) was added to each well and incubated for 1 hour. The wells were subsequently washed 5 times with 300 μL of ELISA wash buffer. 100 μL of QuantaBlu Fluorogenic Peroxidase substrate solution was added to each well, incubated for 30 minutes and reaction stopped by adding 100 μL of stop solution. Fluorescent signal from each well was measured using a Biotek Cytation5 plate reader by exciting the fluorophore at […] and measuring emission at 420 nm. Fluorescent signals were plotted as a function of polypeptide concentration.

[11] = biological target: T3, KAAG1 disordered region peptide, …; test: as above
Procedure: as §1

[12] = biological target: T2, CYSLTR2 N-terminal disordered region, …; test: ELISA fluorescence at 10,000 nM peptide divided by the no-scaffold control; the control bar is marked 1x
Procedure: as §1

[13] = biological target: T6, MERKFMSLQPSISVSEMEPNG (N-terminal biotin); test: ELISA, scaffold coated on the plate, biotinylated peptide titrated, streptavidin-HRP fluorescence
T6 construct: First of three overlapping 21-mers of the CYSLTR2 N-terminal disordered region
T6 peptide: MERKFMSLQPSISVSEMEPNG
Procedure: as §1

[14] = biological target: T7, GMERKFMSLQPSISVSEMEPNGTFSNNNSRNCTIENFKREFFP (biotinylated, position not given); test: as above
T7 peptide: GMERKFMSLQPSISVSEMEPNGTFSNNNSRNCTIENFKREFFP
Procedure: as §1

[15] = biological target: T8, TNFRSF13B disordered region peptide, LPPELRRQRSGEVENNSDNSGRYQ (biotin (position not given)); test: as above
T8 peptide: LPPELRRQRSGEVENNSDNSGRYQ
Procedure: as §1

[16] = biological target: T5, CYSLTR2 Epitope SISVSEMEPNGTFSNNNSRNC; test: as above
Procedure: as §1

[17] = biological target: T9, KCNA6 Epitope QQQEQQPASGGGGQNGQQAMS (biotin (position not given)); test: as above
T9 peptide: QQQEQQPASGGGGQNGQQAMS
Procedure: as §1

[18] = biological target: T10, CD40LG Epitope NKEETKKENSFEMQKGDQNPQIAAH (biotin (position not given)); test: as above
T10 peptide: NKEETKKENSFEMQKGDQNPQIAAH
Procedure: as §1

[19] = biological target: T2, CYSLTR2 N-terminal disordered region, …; test: modified sandwich ELISA (FIGS. 30A and 30B)
Procedure: as §1, with “Fluorescent signals were plotted as a function of polypeptide concentration.” left out

[20] = biological target: T4, Urotensin-2 receptor (UR-II-R) …; test: ELISA, scaffold coated on the plate, biotinylated peptide titrated, streptavidin-HRP fluorescence
Procedure: as §1, with “Fluorescent signals were plotted as a function of polypeptide concentration.” left out

B3: S055 (designed binder)
chain: GSHSMRYNYTSVSRPGRGEPRFLSEGHVDDTQFVRFDSDAASPREEPRAPWIEQEGPEYWDRNTQIYKAQAQTDRESLRNLRGYYNQSEAGSHTLQSIYGCDVGPDGRLLRGHDQYYYDGKDYISLNEDLRSWTAADTAAQITQRKWEAAREAEQRRAYLEGECVEWLRRYLENGKDKLERADGGSHHHHHHLE
fluorescent signal [1]: > 400000 fluorescentsignal
fluorescent signal [5]: 50000 to 100000 fluorescentsignal

B4: S056 (designed binder)
chain: GSHSMRYNYTSVSRPGRGEPRFLSEGHVDGQPFVRFDSDAASPREEPRAPWIEQEGPEYWDRNTQIYKAQAQTDRESLRNLRGYYNQSEAGLHSLNSIYVCDVGPDGRLLRGHDHYYYDGELYISLNEDLRSWTAADTAAQITQRKWEAAREAEQRRAYLEGECVEWLRRYLENGKDKLERADGGSHHHHHHLE
fluorescent signal [1]: > 400000 fluorescentsignal
fluorescent signal [5]: 50000 to 100000 fluorescentsignal

B5: S098 (designed binder)
chain: PENYLFQGRQECNGTQFLERYIYNREEFVRFDEFRAVGRPDEEYWNSQKDILEEERAVPDRMCRHNYELGGPMTLQRRVQPRVNIKADHVSTYAAFVQRPFMFEFDEDEMFYVDLHLEEFGQAFSFEAQGGLANIAILNNNLNTRSNHTQATNDPPHHHHHHLE
binding result [6]: no binding (tested: <5000 (fluorescence signal, key))
binding result [7]: no binding (tested: <5000 (fluorescence signal, key))

B6: S005 (designed binder)
chain: MIKEEHVIIQAEFYLNPDQSGEFMFDFDGDEIFHVDMAKKETVWRLEEFGRFASFEAQGALANIAVDKANLEIMTKRSNYTPMGDTRPRFLWQLKFECHFFNGTERVRLLERCIYNQEESVRFDSDVGEYRAVTELGRPDAEYWNSQKDLLEQRRAAVDTYCRHNYGVGESFTVQGGSHHHHHHLE
notes: Engineered scaffold derived from MHC II; derived from S007 by removing the immunoglobulin unit; also called v1.1; scaffold v1.1
Kd [8]: 840 nM
binding result [7]: no binding (tested: <5000 (fluorescence signal, key))
binding result [9]: binds
EC50 (read off the curve) [10]: ~300 nM
binding result [11]: binds
Relative Binding [12]: 18.5 x
Relative Binding (Fold Change) [12]: 18.5 x

The next lines start with results.

fluorescent signal [1]: > 400000 fluorescentsignal
fluorescent signal [2]: 50000 to 100000 fluorescentsignal
B1: S078 (designed binder)
chain: GDTRPRFLWQLKFECHFFNGTERVRLLERCIYNQEESVRFDSDVGEYRAVTELGRPDAEYWNSQKDLLEQRRAAVDTYCRHNYGVGESFTVQRRSGGGIKEEHVIIQAEFYLNPDQSGEFMFDFDGDEIFHVDMAKKETVWRLEEFGRFASFEAQGALANIAVDKANLEIMTKRSNYTGGSHHHHHHLE
binding result [3]: no binding (tested: <5000 (fluorescence signal, key))

fluorescent signal [1]: > 400000 fluorescentsignal
B2: S084 (designed binder)
chain: IKEEHVIQQSEYYTNPDQSGEFQFDFDGDEIFHVDMAKKETVWRLEEFGRFASFEAQGALANIAVDKANLEIMTKRSNYTGDTRPRFNWQLKFECHFFNGTERVRLLERCNYNQEESVRFDSDVGEYRAVTELGRPDAEYWNSQKDLLEQRRAAVDTYCRHNYGVGESFTVQRRGGSHHHHHHLE
binding result [3]: no binding (tested: <5000 (fluorescence signal, key))
binding result [4]: no binding (tested: <5000 (fluorescence signal, key))

binding result [13]: no binding (tested: 10000 nM)
binding result [14]: binds
binding result [11]: no binding (tested: 10000 nM)
binding result [15]: no binding (tested: 10000 nM)
binding result [16]: binds
binding result [17]: no binding (tested: 10000 nM)
binding result [18]: no binding (tested: 10000 nM)
B7: S177 (designed binder)
chain: MIKEEHVINQAEYYLNPDQSGEFKFDFDGDEIFHVDMAKKETVWRLEEFGRFASFEAQGALAHIAVDKANLEIMTKRSNYTPMGDTRPRFLWQLKYECHFFNGTERVRLNERCIYNQEESVRFDSDVGEYRAVTELGRPDAEQWNSQKDHLEQRRAAVDTKCRHNYGVGESFTVQGGSHHHHHHLE
notes: Computationally derived from S005; 21.92 kDa

fold higher affinity compared to a non-specific protein binder [19]: > 65 fold
binding result [20]: binds
binding result [13]: no binding (tested: 10000 nM)
EC50 (read off the curve) [10]: ~500 nM
binding result [11]: binds
binding result [16]: binds
Relative Binding [12]: 37.2 x
Relative Binding (Fold Change) [12]: 37.2 x
B8: S090 (designed binder)
chain: IKEEHSIRQNEMYLNPDQSGLFEFHLDGQPIFRVDMQKKRTKWQLEEFGRFASFEAQGALANIAVDKANLEIMTKRSNQSEAGSHSWQLIFVCEFHEGTESVRLSERCYYNQELSVSFNSDVGEYRAVTELGRPDAEYWNSQKDLLEQRRAAVDTYCRHNYGVGESFTVQRRGGSHHHHHHLE
notes: Rationally designed from v1.1 (S005); By SEC it is a mixture of monomers, dimers and multimers, at least 50% monomer; also called v1.2; scaffold v1.2
